Data reported in patent publication US20210253643A1 (UNIVERSITY OF BRITISH COLUMBIA, published 2021).

Biological target: T1, FhuA (E. coli, UniProt P06971 34-747)
T1 construct: also called FhuA receptor; FhuA transporter
T1 sequence (looked up): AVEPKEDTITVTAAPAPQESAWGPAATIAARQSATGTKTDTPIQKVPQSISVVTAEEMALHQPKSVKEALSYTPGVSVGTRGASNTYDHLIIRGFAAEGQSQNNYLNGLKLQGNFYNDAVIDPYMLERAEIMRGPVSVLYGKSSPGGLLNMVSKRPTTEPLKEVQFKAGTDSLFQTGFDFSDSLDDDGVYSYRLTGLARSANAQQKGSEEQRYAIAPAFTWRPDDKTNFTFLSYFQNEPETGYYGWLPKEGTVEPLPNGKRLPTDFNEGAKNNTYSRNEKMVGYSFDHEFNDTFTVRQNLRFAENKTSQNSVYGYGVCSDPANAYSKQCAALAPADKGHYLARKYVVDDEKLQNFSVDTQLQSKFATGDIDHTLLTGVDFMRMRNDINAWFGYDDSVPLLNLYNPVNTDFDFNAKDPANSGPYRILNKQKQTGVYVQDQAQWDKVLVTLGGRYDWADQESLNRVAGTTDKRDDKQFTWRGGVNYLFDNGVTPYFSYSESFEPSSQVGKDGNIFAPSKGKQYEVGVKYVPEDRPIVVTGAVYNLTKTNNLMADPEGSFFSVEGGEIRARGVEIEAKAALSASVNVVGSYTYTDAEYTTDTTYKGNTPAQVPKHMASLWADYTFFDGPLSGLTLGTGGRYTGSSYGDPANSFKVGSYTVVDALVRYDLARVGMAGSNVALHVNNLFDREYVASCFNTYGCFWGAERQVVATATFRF
Assay: CN-PAGE band shift, Coomassie: about 2 µg FhuA in MSPL156 nanodisc with 5 µg colicin M, 5 min at room temperature, without and with ferricrocin

B1: Colicin M (other)
chain: METLTVHAPSPSTNLPSYGNGAFSLSAPHVPGAGPLLVQVVYSFFQSPNMCLQALTQLEDYIKKHGASNPLTLQIISTNIGYFCNADRNLVLHPGISVYDAYHFAKPAPSQYDYRSMNMKQMSGNVTTPIVALAHYLWGNGAERSVNIANIGLKISPMKINQIKDIIKSGVVGTFPVSTKFTHATGDYNVITGAYLGNITLKTEGTLTISANGSWTYNGVVRSYDDKYDFNASTHRGIIGESLTRLGAMFSGKEYQILLPGEIHIKESGKR
notes: also called ColM; His-tagged Colicin M
binding result: binds
